Like-named read-outs stand apart in the source and are kept apart here.
Columns and labels:
[1] = target: T1, SARS-CoV-2 S on CHO-S cells (SARS-CoV-2, UniProt P0DTC2 14-1273); test: flow cytometry, CHO-S cells
T1 construct: whole, on cells

[2] = target: Human SARS-CoV-2_Wuhan S (SmT1) (SARS-CoV-2 (Wuhan), UniProt P0DTC2 14-1208); test: flow cytometry SVNA, VHH-Fc vs biotin-S binding to Vero E6 ACE2
[3] = target: T2, Human SARS-CoV-2_Wuhan S (SmT1) (SARS-CoV-2 (Wuhan), UniProt P0DTC2 14-1208); test: SPR, VHH over immobilised S
[4] = target: T2, Human SARS-CoV-2_Wuhan S (SmT1); test: SPR, VHH over immobilised S; remark: listed apart in the source
[5] = target: SARS-CoV spike (S) (SARS-CoV, UniProt P59594 14-1195); test: SPR, VHH over immobilised S

B1: NRCoV2-1a VHH-Fc (Fc fusion)
chain: EVKLVQSGGGSVQPGGSLRLSCAASGSTLDYYAIGWFRQAPGKEREWVSCVSSSDGSTLYADSVKGRFTISRDNAKNTVYLQMNSLKPEDTAVYVCAADYSMRPLWVSRWHRDYEYWGQGTQVTVSS
notes: bivalent VHH-Fc
Bmax [1]: 17200
EC50 [1]: 1.1 nM

B2: NRCoV2-11a VHH-Fc (Fc fusion)
chain: EVQLQQSGGGLVQPGGSLRLSCAASGFTLDSYNIAWFRQAPGKEREWISYISRYYESTYYSDSVKGRFTTSRDGDKKTVSLQMNSLKSEDTAVYYCAARSRDFSSPISATDKYGSWGQGTQVTVSS
notes: bivalent VHH-Fc
Bmax [1]: 12000
EC50 [1]: 2 nM

B3: NRCoV2-MRed25 VHH-Fc (Fc fusion)
chain: EVQLVESGGGLVQAGGSLRLSCAASGHTFSRYGMGWFRQAPGKEREFVAAISWRGDSTYYRDSVNGRFTISRDNAKNTVYLGMNSLKPEDTAVYYCAAEMWGTATIVASRYTYWGQGTQVTVSS
notes: bivalent VHH-Fc
Bmax [1]: 4420
EC50 [1]: 0.8 nM

B4: NRCoV2-1a VHH-Fc (Fc fusion)
chain: EVKLVQSGGGSVQPGGSLRLSCAASGSTLDYYAIGWFRQAPGKEREWVSCVSSSDGSTLYADSVKGRFTISRDNAKNTVYLQMNSLKPEDTAVYVCAADYSMRPLWVSRWHRDYEYWGQGTQVTVSS
notes: bivalent VHH-Fc
IC50 [2]: 9.2 nM
IC99 [2]: 89.4 nM
Imax % [2]: 94%

B5: NRCoV2-11a VHH-Fc (Fc fusion)
chain: EVQLQQSGGGLVQPGGSLRLSCAASGFTLDSYNIAWFRQAPGKEREWISYISRYYESTYYSDSVKGRFTTSRDGDKKTVSLQMNSLKSEDTAVYYCAARSRDFSSPISATDKYGSWGQGTQVTVSS
notes: bivalent VHH-Fc
IC50 [2]: 9.7 nM
IC99 [2]: 67.6 nM
Imax % [2]: 46%

B6: NRCoV2-1d VHH (VHH)
VHH: EVQLVESGGGSVQPGGSLRLSCAASGSTLDYYAIGWFRQAPGKEREWVSSVSSSDGNTLYADSVKGRFTISRDNAKNTVYLQMNSLKAEDTAVYVCAADYSMRPFAVGRWHRDYEYWGQGTQVTVSS
Kd [3]: 0.75 nM
Kd [4]: 0.75 nM
koff [4]: 0.00105 s⁻¹
kon [4]: 1.39e+06 M⁻¹ s⁻¹

B7: NRCoV2-02 VHH (VHH)
VHH: EVQLVESGGGLVQAGGSLRLSCAASGFTFSNYAMNWVRQAPGKGLEWVSGISGRGDDTRYADSVKGRFTISRDNAKNTLFLQMRSLRPEDTGVYRCTKGPDLYYFGSGYSDRGQGTQVTVSS
Kd [3]: 0.62 nM
binding result [5]: no binding
Kd [4]: 0.624 nM
koff [4]: 0.00127 s⁻¹
kon [4]: 2.04e+06 M⁻¹ s⁻¹

B8: NRCoV2-03 VHH (VHH)
VHH: EVQLVSSGGGLVQAGGSLRLSCTASGITFSYYAMGWYRQAPGQPRELVASMSNMDSTIYADSVKGRFTISRDNAKTTIYLQMNNLKPEDTAVYFCNIYGPTYSTRRNEYWGQGTQVTVSS
Kd [3]: 1.56 nM
binding result [5]: no binding
Kd [4]: 1.56 nM
koff [4]: 0.000181 s⁻¹
kon [4]: 116000 M⁻¹ s⁻¹

B9: NRCoV2-04 VHH (VHH)
VHH: AVQLVDSGGGLVQPGGSLRLSCAASGSPFSNVVMAWYRQAPGKQRERVAFISGGGIADYIMSVKGRFTISRDNAKNTVYLQMNSLKPEDTAVYYCWSSYESTWGQGTQVTVSS
Kd [3]: 10.2 nM
binding result [5]: no binding
Kd [4]: 10.2 nM
koff [4]: 0.0188 s⁻¹
kon [4]: 1.84e+06 M⁻¹ s⁻¹

B10: NRCoV2-05 VHH (VHH)
VHH: EVKLVQSGGGLVQPGGSLRLSCAASGFIFSNYAMNWVRQAPGKGLEWVSGINSGGGDTRYADSVKGRFTVSRDNAKNTLYLQMNSLKPEDTGVYYCSKGPVSSYYGSGYDYRGQGTQVTVSS
Kd [3]: 2.6 nM
binding result [5]: no binding
Kd [4]: 2.57 nM
koff [4]: 0.00709 s⁻¹
kon [4]: 2.76e+06 M⁻¹ s⁻¹

B11: NRCoV2-06 VHH (VHH)
VHH: EVQLVQSGGGLVQAGESLRLSCAASVSTFSSYAMGWYRQAPGKQRELVASIGFVGATYYIDSVKGRFTISRDNAKKTAYLQMNDLKPDDTAVYYCNARHYGGSEYWGQGTQVTVSS
Kd [3]: 223 nM
binding result [5]: no binding
Kd [4]: 223 nM
koff [4]: 0.00456 s⁻¹
kon [4]: 20500 M⁻¹ s⁻¹

B12: NRCoV2-07 VHH (VHH)
VHH: QVQLVQSGGGLVQPGGSLRLSCAASGVTLDYYAIGWFRQAPGKEREAVSCISSNGRRNHYVASVRGRFTISRDNAKSTVYLQMNSLKPEDTAVYYCAAVQDVHGDNYYCTSPNEYNVWGQGTQVTVSS
Kd [3]: 0.94 nM
Kd [5]: 12.2 nM
koff [5]: 0.00146 s⁻¹
kon [5]: 120000 M⁻¹ s⁻¹
Kd [4]: 0.939 nM
koff [4]: 0.000355 s⁻¹
kon [4]: 378000 M⁻¹ s⁻¹

B13: NRCoV2-10 VHH (VHH)
VHH: QLQLQESGGGLVQPGGSLTLSCAASGNTFSRSNMHWYRQAPGAQREWVAAISSRGISTYAYSAKGRFTISRDNAKNTVSLQMNSLKPEDTAVYYCYAADDLGDYWGQGTQVTVSS
Kd [3]: 0.2 nM
binding result [5]: no binding
Kd [4]: 0.199 nM
koff [4]: 0.000116 s⁻¹
kon [4]: 581000 M⁻¹ s⁻¹

B14: NRCoV2-11 VHH (VHH)
VHH: EVQLVSSGGGLVQPGGSLRLSCAASGSSLDSYSVSWFRQAPGKEREWISFISRYYSSTYYTDSVKGRFTTSRDGDQKTVHLQMNSLKPEDTAVYYCAARSRDFSSPFSATDTYTSWGQGTQVTVSS
Kd [3]: 0.018 nM
Kd [5]: 0.014 nM
koff [5]: 2.7e-05 s⁻¹
kon [5]: 1.93e+06 M⁻¹ s⁻¹
Kd [4]: 0.0177 nM
koff [4]: 1.71e-05 s⁻¹
kon [4]: 964000 M⁻¹ s⁻¹

B15: NRCoV2-18 VHH (VHH)
VHH: EVQLVESGGGLVQAGGSLRLSCVASGITISGYNMAWWRQTRGKQTERVAFINSGGSTTYSDSVKGRFTISRDNGKNTAYLQMNSLNAEDTADYFCSLHTSHDYWGQGTQVTVSS
Kd [3]: 0.32 nM
Kd [4]: 0.318 nM
koff [4]: 9.39e-05 s⁻¹
kon [4]: 295000 M⁻¹ s⁻¹

B16: NRCoV2-20 VHH (VHH)
VHH: EVQLQQSGGGLVQPGGSLRLSCAASGRTFSNYVVGWFRQAPQAPGKDHEFVAVISGSDTETYYADSVKGRFTISRDNAKNTVYLQMNSLKPEDTAVYYCAADRGMSYYYTRATEYYYWGQGTQVTVSS
Kd [3]: 4.39 nM
Kd [4]: 4.39 nM
koff [4]: 0.0116 s⁻¹
kon [4]: 2.64e+06 M⁻¹ s⁻¹

B17: NRCoV2-SR02 VHH (VHH)
VHH: EVQLVDSGGGLVQAGGSLRLSCTASEFTLNYYSIGWFRQSPGKEREGVSCIRYSGGGIDYADSVKGRFTISRDNAKNTVYLTMNSLKPEDTAVYYCAADRLYSRACPTAGGRNYWGQGTQVTVSS
Kd [3]: 0.47 nM
Kd [4]: 0.135 nM
koff [4]: 0.000669 s⁻¹
kon [4]: 4.98e+06 M⁻¹ s⁻¹

B18: NRCoV2-SR13 VHH (VHH)
VHH: EVQLVESGGGLVTTGGSLRLSCATSGSRFGSKHMAWYRQAPGKQRDLVAAISSGGSTHYGSSVKGRFTISRDNAKSTVYLQMNSLNPEDTAVFYCNMGGWDYRSNTYIPGSRSDYWGQGTQVTVSS
Kd [3]: 3.6 nM
Kd [4]: 3.56 nM
koff [4]: 0.00376 s⁻¹
kon [4]: 1.06e+06 M⁻¹ s⁻¹

B19: NRCoV2-S2H4 VHH-Fc (Fc fusion)
chain: QVQLVQSGGGLVQAGGSLRLSCAASGFTFNLYSIAWFRQAPGKEREGVSCINSGDRDSTTYYADSVKGRFTISRDNAKHTAYLQMDSLKPEDTAVYYCALVFGYTSRDYCLTPKRGNYWGQGTQVTVSS
notes: bivalent VHH-Fc
Bmax [1]: 7910
EC50 [1]: 1 nM

— patent US20240270826A1 (NATIONAL RESEARCH COUNCIL OF CANADA, published 2024)
